Test results published in IntAct's records for PubMed 31515488.

B1: Zinc finger and BTB domain-containing protein 9 (Homo sapiens), Q96C00 (parent)
chain: METPTPLPPVPASPTCNPAPRTIQIEFPQHSSSLLESLNRHRLEGKFCDVSLLVQGRELRAHKAVLAAASPYFHDKLLLGDAPRLTLPSVIEADAFEGLLQLIYSGRLRLPLDALPAHLLVASGLQMWQVVDQCSEILRELETSGGGISARGGNSYHALLSTTSSTGGWCIRSSPFQTPVQSSASTESPASTESPVGGEGSELGEVLQIQVEEEEEEEEDDDDEDQGSATLSQTPQPQRVSGVFPRPHGPHPLPMTATPRKLPEGESAPLELPAPPALPPKIFYIKQEPFEPKEEISGSGTQPGGAKEETKVFSGGDTEGNGELGFLLPSGPGPTSGGGGPSWKPVDLHGNEILSGGGGPGGAGQAVHGPVKLGGTPPADGKRFGCLCGKRFAVKPKRDRHIMLTFSLRPFGCGICNKRFKLKHHLTEHMKTHAGALHACPHCGRRFRVHACFLRHRDLCKGQGWATAHWTYK
B2: LIM/homeobox protein Lhx4 (Homo sapiens), Q969G2 (parent)
chain: MMQSATVPAEGAVKGLPEMLGVPMQQIPQCAGCNQHILDKFILKVLDRHWHSSCLKCADCQMQLADRCFSRAGSVYCKEDFFKRFGTKCTACQQGIPPTQVVRKAQDFVYHLHCFACIICNRQLATGDEFYLMEDGRLVCKEDYETAKQNDDSEAGAKRPRTTITAKQLETLKNAYKNSPKPARHVREQLSSETGLDMRVVQVWFQNRRAKEKRLKKDAGRHRWGQFYKSVKRSRGSSKQEKESSAEDCGVSDSELSFREDQILSELGHTNRIYGNVGDVTGGQLMNGSFSMDGTGQSYQDLRDGSPYGIPQSPSSISSLPSHAPLLNGLDYTVDSNLGIIAHAGQGVSQTLRAMAGGPTSDISTGSSVGYPDFPTSPGSWLDEMDHPPF
partner: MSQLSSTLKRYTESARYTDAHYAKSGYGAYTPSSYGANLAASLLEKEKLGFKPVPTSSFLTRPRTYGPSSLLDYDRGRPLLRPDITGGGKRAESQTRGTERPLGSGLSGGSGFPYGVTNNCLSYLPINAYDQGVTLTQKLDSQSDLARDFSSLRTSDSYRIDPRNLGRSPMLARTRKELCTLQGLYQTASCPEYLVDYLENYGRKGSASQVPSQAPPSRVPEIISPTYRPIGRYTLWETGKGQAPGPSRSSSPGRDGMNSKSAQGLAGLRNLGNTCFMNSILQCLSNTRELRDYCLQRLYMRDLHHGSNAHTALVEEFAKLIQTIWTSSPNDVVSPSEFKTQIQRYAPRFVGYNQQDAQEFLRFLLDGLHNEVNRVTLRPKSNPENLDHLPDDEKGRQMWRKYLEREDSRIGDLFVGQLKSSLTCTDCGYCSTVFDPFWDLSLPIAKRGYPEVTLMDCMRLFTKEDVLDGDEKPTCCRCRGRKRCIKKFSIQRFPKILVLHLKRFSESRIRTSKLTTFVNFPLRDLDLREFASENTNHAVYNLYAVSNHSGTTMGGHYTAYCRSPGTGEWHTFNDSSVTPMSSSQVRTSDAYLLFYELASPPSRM
B3: Tuftelin-interacting protein 11 (Homo sapiens), Q9UBB9 (parent)
chain: MSLSHLYRDGEGRIDDDDDERENFEITDWDLQNEFNPNRQRHWQTKEEATYGVWAERDSDDERPSFGGKRARDYSAPVNFISAGLKKGAAEEAELEDSDDEEKPVKQDDFPKDFGPRKLKTGGNFKPSQKGFAGGTKSFMDFGSWERHTKGIGQKLLQKMGYVPGRGLGKNAQGIINPIEAKQRKGKGAVGAYGSERTTQSMQDFPVVDSEEEAEEEFQKELSQWRKDPSGSKKKPKYSYKTVEELKAKGRISKKLTAPQKELSQVKVIDMTGREQKVYYSYSQISHKHNVPDDGLPLQSQQLPQSGKEAKAPGFALPELEHNLQLLIDLTEQEIIQNDRQLQYERDMVVNLFHELEKMTEVLDHEERVISNLSKVLEMVEECERRMQPDCSNPLTLDECARIFETLQDKYYEEYRMSDRVDLAVAIVYPLMKEYFKEWDPLKDCTYGTEIISKWKSLLENDQLLSHGGQDLSADAFHRLIWEVWMPFVRNIVTQWQPRNCDPMVDFLDSWVHIIPVWILDNILDQLIFPKLQKEVENWNPLTDTVPIHSWIHPWLPLMQARLEPLYSPIRSKLSSALQKWHPSDSSAKLILQPWKDVFTPGSWEAFMVKNIVPKLGMCLGELVINPHQQHMDAFYWVIDWEGMISVSSLVGLLEKHFFPKWLQVLCSWLSNSPNYEEITKWYLGWKSMFSDQVLAHPSVKDKFNEALDIMNRAVSSNVGAYMQPGARENIAYLTHTERRKDFQYEAMQERREAENMAQRGIGVAASSVPMNFKDLIETKAEEHNIVFMPVIGKRHEGKQLYTFGRIVIYIDRGVVFVQGEKTWVPTSLQSLIDMAK
partner: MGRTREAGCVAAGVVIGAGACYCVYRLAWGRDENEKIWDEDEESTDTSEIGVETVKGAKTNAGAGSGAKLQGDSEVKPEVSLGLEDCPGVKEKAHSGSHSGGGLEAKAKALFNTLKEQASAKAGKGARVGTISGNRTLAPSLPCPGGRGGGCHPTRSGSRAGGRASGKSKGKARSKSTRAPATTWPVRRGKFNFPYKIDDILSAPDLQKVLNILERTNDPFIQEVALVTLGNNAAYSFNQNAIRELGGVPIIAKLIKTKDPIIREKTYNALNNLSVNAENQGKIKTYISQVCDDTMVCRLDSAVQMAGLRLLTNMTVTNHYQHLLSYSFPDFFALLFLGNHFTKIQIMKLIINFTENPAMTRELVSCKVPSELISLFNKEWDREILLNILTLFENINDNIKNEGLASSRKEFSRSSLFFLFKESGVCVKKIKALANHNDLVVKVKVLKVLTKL
B4: Syntaxin-3 (Homo sapiens), Q13277 (parent)
chain: MKDRLEQLKAKQLTQDDDTDAVEIAIDNTAFMDEFFSEIEETRLNIDKISEHVEEAKKLYSIILSAPIPEPKTKDDLEQLTTEIKKRANNVRNKLKSMEKHIEEDEVRSSADLRIRKSQHSVLSRKFVEVMTKYNEAQVDFRERSKGRIQRQLEITGKKTTDEELEEMLESGNPAIFTSGIIDSQISKQALSEIEGRHKDIVRLESSIKELHDMFMDIAMLVENQGEMLDNIELNVMHTVDHVEKARDETKKAVKYQSQARKKLIIIIVLVVVLLGILALIIGLSVGLN
partner: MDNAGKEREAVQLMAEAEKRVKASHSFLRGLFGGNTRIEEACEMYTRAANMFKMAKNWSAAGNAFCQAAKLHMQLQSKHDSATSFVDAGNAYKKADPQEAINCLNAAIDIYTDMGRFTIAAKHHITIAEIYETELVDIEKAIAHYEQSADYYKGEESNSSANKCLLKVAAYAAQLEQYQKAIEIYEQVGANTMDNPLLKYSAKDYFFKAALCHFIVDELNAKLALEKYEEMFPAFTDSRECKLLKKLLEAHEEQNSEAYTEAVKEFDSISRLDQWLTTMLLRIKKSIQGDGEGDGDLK
B5: Vacuolar protein sorting-associated protein 37B (Homo sapiens), Q9H9H4 (parent)
chain: MAGAGSEARFAGLSLVQLNELLEDEGQLTEMVQKMEETQNVQLNKEMTLASNRSLAEGNLLYQPQLDTLKARLTQKYQELQVLFEAYQIKKTKLDRQSSSASLETLLALLQAEGAKIEEDTENMAEKFLDGELPLDSFIDVYQSKRKLAHMRRVKIEKLQEMVLKGQRLPQALAPLPPRLPELAPTAPLPYPAPEASGPPAVAPRRIPPPPPPVPAGRLATPFTAAMSSGQAVPYPGLQCPPLPPRVGLPTQQGFSSQFVSPYPPPLPQRPPPRLPPHQPGFILQ
B6: "N-acyl-aromatic-L-amino acid amidohydrolase (carboxylate-forming)" (Homo sapiens), Q96HD9 (parent)
chain: MCSLPVPREPLRRVAVTGGTHGNEMSGVYLARHWLHAPAELQRASFSAVPVLANPAATSGCRRYVDHDLNRTFTSSFLNSRPTPDDPYEVTRARELNQLLGPKASGQAFDFVLDLHNTTANMGTCLIAKSSHEVFAMHLCRHLQLQYPELSCQVFLYQRSGEESYNLDSVAKNGLGLELGPQPQGVLRADIFSRMRTLVATVLDFIELFNQGTAFPAFEMEAYRPVGVVDFPRTEAGHLAGTVHPQLQDRDFQPLQPGAPIFQMFSGEDLLYEGESTVYPVFINEAAYYEKGVAFVQTEKFTFTVPAMPALTPAPSPAS
partner: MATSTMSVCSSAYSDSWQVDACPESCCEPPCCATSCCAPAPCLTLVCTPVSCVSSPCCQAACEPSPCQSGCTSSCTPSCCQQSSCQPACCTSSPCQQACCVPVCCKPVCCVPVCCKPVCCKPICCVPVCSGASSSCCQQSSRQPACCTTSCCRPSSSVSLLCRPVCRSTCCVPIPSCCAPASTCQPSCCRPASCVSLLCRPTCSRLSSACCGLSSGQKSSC
B7: Keratin, type II cytoskeletal 2 epidermal (Homo sapiens), P35908 (parent)
chain: MSCQISCKSRGRGGGGGGFRGFSSGSAVVSGGSRRSTSSFSCLSRHGGGGGGFGGGGFGSRSLVGLGGTKSISISVAGGGGGFGAAGGFGGRGGGFGGGSSFGGGSGFSGGGFGGGGFGGGRFGGFGGPGGVGGLGGPGGFGPGGYPGGIHEVSVNQSLLQPLNVKVDPEIQNVKAQEREQIKTLNNKFASFIDKVRFLEQQNQVLQTKWELLQQMNVGTRPINLEPIFQGYIDSLKRYLDGLTAERTSQNSELNNMQDLVEDYKKKYEDEINKRTAAENDFVTLKKDVDNAYMIKVELQSKVDLLNQEIEFLKVLYDAEISQIHQSVTDTNVILSMDNSRNLDLDSIIAEVKAQYEEIAQRSKEEAEALYHSKYEELQVTVGRHGDSLKEIKIEISELNRVIQRLQGEIAHVKKQCKNVQDAIADAEQRGEHALKDARNKLNDLEEALQQAKEDLARLLRDYQELMNVKLALDVEIATYRKLLEGEECRMSGDLSSNVTVSVTSSTISSNVASKAAFGGSGGRGSSSGGGYSSGSSSYGSGGRQSGSRGGSGGGGSISGGGYGSGGGSGGRYGSGGGSKGGSISGGGYGSGGGKHSSGGGSRGGSSSGGGYGSGGGGSSSVKGSSGEAFGSSVTFSFR
partner: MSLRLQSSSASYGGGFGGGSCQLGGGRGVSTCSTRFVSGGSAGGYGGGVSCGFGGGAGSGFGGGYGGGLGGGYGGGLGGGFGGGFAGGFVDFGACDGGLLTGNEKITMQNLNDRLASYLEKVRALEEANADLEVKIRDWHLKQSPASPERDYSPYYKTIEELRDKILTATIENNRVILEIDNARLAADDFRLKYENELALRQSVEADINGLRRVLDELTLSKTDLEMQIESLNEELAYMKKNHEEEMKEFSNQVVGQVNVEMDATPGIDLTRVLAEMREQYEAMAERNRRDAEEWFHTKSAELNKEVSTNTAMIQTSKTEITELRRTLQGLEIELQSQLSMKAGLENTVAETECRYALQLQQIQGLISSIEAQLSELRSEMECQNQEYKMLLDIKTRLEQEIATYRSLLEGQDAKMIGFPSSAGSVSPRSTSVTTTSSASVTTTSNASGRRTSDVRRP

Variants of: B1
Details: with pin4_human PIN4, Q9Y237

effect of a mutation on the interaction	Variant
with no effect	S173C

Variants of: B1
Details: with if4e2_human EIF4E2, O60573

effect of a mutation on the interaction	Variant
with no effect	S173C

Variants of: B1
Details: with mo4l1_human MORF4L1, Q9UBU8

effect of a mutation on the interaction	Variant
with no effect	S173C

Variants of: B2
Details: with ubp2_human USP2, O75604

effect of a mutation on the interaction	Variant
with no effect	N328S

Variants of: B3
Details: with armx1_human ARMCX1, Q9P291

effect of a mutation on the interaction	Variant
with no effect	S688L
with no effect	R8Q

Variants of: B4
Details: with snab_human NAPB

effect of a mutation on the interaction	Variant
with no effect	H198Y
with no effect	G276S

Variants of: B5
Details: with vps28_human VPS28, Q9UK41

effect of a mutation on the interaction	Variant
with no effect	M151I

Variants of: B6
Details: with kr103_human KRTAP10-3, P60369

effect of a mutation on the interaction	Variant
with no effect	R8Q

Variants of: B7
Details: with KRT13, P13646

effect of a mutation on the interaction	Variant
with no effect	A517G
